This passage reports Kd and IC50 results from patent US20200181211A1.

Experiment [1] has as its target soluble plasma fibronectin (Fn) isolated from human plasma (human) (UniProt P02751). Put plainly: fluorescence anisotropy titration, 100 nM labelled peptide, Fn 0 to 1.4 µM in PBS, one-site-binding model. On the technique in general: Fluorescence polarisation rises when a labelled molecule tumbles more slowly, as on binding a larger partner.
Experiment [2] addresses manually pulled Fn fibers (relaxed, fibrillar fibronectin from human plasma, 5% Fn-Cy5) (human) (UniProt P02751). The experiment can be described thus: titration of fluorescent peptide on relaxed manually pulled Fn fibers, confocal intensity ratio peptide/Fn-Cy5, Hill fit.
Experiment [3] shares this target. The experiment can be described thus: displacement assay on relaxed manually pulled Fn fibers, competitor of FnBPA5-Alexa488.

The term Kd denotes the equilibrium constant for the complex coming apart. Usually IC50 stands for the concentration at which inhibition is half-maximal. A low value points to greater potency in that assay.

In the case of FnBPA5-Alexa488 (peptide), the values for the Kd in experiment [1] and in experiment [2] were 0.075 µM and 0.028 µM, respectively.

natIn-FnBPA5 (cold labeled) (peptide) showed an IC50 in experiment [3] of 0.049 µM.
